Patent publication US20050014220A1

Target: bovine thrombin (bovine) (UniProt P00735)
Experiment: cell-based or functional assay

Row | rate of change in absorbance of the chromogenic substrate S2238 at 405 nm (thrombin-dependent activation of protein C on COS cells) | Substance
1 | 0.23 units/min | mutated murine thrombomodulin lacking the N-terminal lectin-like domain, expressed on COS cells (from UniProt P15306 17-577) (receptor)
2 | 0.21 units/min | wild-type murine thrombomodulin expressed on COS cells (from UniProt P15306 17-577) (receptor)
